± gives the half width of the 95% confidence interval.
test: folding stability dG unfold from chymotrypsin proteolysis; higher = more stable
Method in brief: (§1)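 Only designs with AlphaFold2 dimer inter-PAE above 15 were retained; each was a mini-protein under 80 residues with no cysteine, in a PA-tagged cDNA display construct. After digestion with trypsin and chymotrypsin and sequencing, K50 was inferred by Bayesian fitting of counts, and unfolding free energy was derived per protease or combined against a sequence-predicted unfolded-state K50 and a shared folded-state K50.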

| Sequence | folding stability dG unfold [kcal/mol] |
| --- | --- |
| SAGGSAGGSPAPDVTIEVKVTYDPETGALRIEVEATIPGGGKITIEYTIPPLDKIEIVGVKIESAGGSAGGS [r12_1029_TrMRF] | 3.83 ± 0.2 |
| SAGGSAGGSAGVKVLKNPGDSLVTVVTETTVTKTTTDPEGNTTTTPVKVTTTTLLEVPLTSAGGSAGGSAGG [r17_103_JUSTAS] | 0.215 ± 0.056 |
| SPYFMFPIDDIKVEKERDPDDGKKTYEMRVEGPNGNPFRIEFNPKDGMIHIEFPPGMKLRPGDTFELTIRSA [r9_509_TrROS] | 1.59 ± 0.2 |
| SAGGSAGGSAMKVRVKIKITRGSKEYEEEFILPEEEIEKLKEEIPEDYEVEIVDKEPLVLKSAGGSAGGSAG [r3_195_JUSTAS] | 0.771 ± 0.16 |
| SAGGKTVVLEFDSVEDLKAALPPGAEVEIVVIREDGSKKTITVPAKDLKLELKPGEKYRVVIKVKPKKSAGG [r13_461_TrROS_Hall] | 2.49 ± 0.084 |
| SAGGSKIIITYDKEKNVITIKVEKNGKLLEITIEVKSKEDLEEALKKAEELAKELEKKGYKVEIIPSAGGSA [r2_118_TrROS_Hall] | 2.31 ± 0.07 |
| SAGGSAGGKKIKIEIIYDKENNKLYIYVVDENTKKVYRYEFNKNGKLIKVEPVKEVKPGEVIPLSAGGSAGG [r6_148_TrROS_Hall] | 2.49 ± 0.16 |
| SAGGSAGGSAMKYYVTITFTDPNNGNTTTEIKEVTTEEEVEKVVEELAPSSYASVKVSIKPKSAGGSAGGSA [r18_258_JUSTAS] | 1.16 ± 0.28 |
| SAGGSAGGSAGGGWAEIEIKITIFVFDPGNMTLFMVTLEPRIEVPPVKRDPDNGKWKPDSAGGSAGGSAGGS [r10_815_TrROS] | 3.92 ± 0.21 |
| SAGGYKYKREKYRDPENGQPRERYKREPPPPPPPSISININAPPEMADKIADILQDLLPNMPVGINGSAGGS [r8_437_TrROS] | 3.04 ± 0.23 |
| SAGNKIEIEPVNYEPMPNGYYRVTARVTIENPNNKKPWDIDVEAYYPMDPNGQPMNVDEIAKEAIKKIFSAG [r5_604_TrROS] | 1.36 ± 0.11 |
| SAGGSAMIELEIKLPKEEAEKIAEELAKKLAEELGLEVKVVDVEIEYDPETDEVTIRVKIEVEPEPSAGGSA [r15_70_TrROS_Hall] | 1.98 ± 0.1 |
| SAGMVEITVEVKEDGTVIVTIPATSPEEALEVAEEVARELAKQFGAEHTEFVIEPVPDDTLVLLVPIKKSAG [r5_772_TrMRF] | 1.26 ± 0.11 |
| SAAVITLETENVTATSTLLEDGSVLVDVVEFYEDGYVSVVKAVIGPDGEIKVVERVVFPVPPPVPPPDASAG [r14_42_TrMRF] | 2.3 ± 0.094 |
| TTKTYTTPVIKKMTVTFDKTEGNEATLTITATLPDGTPVTLPFPLTLETGKLDPAVVEAAIKAAVATAIAQS [r1_124_JUSTAS] | 1.37 ± 0.12 |
| SAGGSAGGSAGMIDIKFEKIEGSSEYRATLTRPGGEVVPVLFSSSESAEEAKERAIELLESAGGSAGGSAGG [r17_161_JUSTAS] | 1.28 ± 0.11 |
| SAGDWYIVIKITIYHPNKREREFPIVFDWKDGKIEIAPEFLQNIAEELGLPPNMKIEIEIVEIMPPNDSAGG [r19_287_TrROS] | 3.22 ± 0.099 |
| SAGGSAGGSEIPDIEITIDSIEFFPDGTVRITATVRFPGGGTAKITLTLPAPPAEYEPPSDLLSAGGSAGGS [r12_558_TrMRF] | 1.12 ± 0.25 |
| SMPPGERYRMTMKFPDGKKITLEMNPGGWWRIKVENKNGKPQHQQPIPPDNPQELAENFGIDKVTDVEPVSA [r9_1107_TrROS] | 2.02 ± 0.2 |
| SAGGSAGGSAGEWVTIPIKNPEKLKDLPGLPIKDVEPNGGKPTITFNGDDPERIKEALNDSAGGSAGGSAGG [r11_65_TrROS] | 0.498 ± 0.063 |
| SAGGSAGGSKKKITVKIEEVKLNPETGKLVLVKIKLPDGKELVFKTPEEIENLPGAEFEVYELSAGGSAGGS [r20_192_TrROS_Hall] | 1.47 ± 0.13 |

test: folding stability dG unfold (combined trypsin and chymotrypsin); higher = more stable
Method in brief: as §1

| Sequence | folding stability dG unfold [kcal/mol] |
| --- | --- |
| SAGGSAGGSAGKKYKVVEVKENKDGTVELVVENENGEKKKITLSKEELDKLKAGDTVELKSAGGSAGGSAGG [r11_943_TrROS_Hall] | 2.47 ± 0.14 |
| SAGGSAPPNLQIDIQINPGHGYIEVSVQIPGRHVKASAKLTEPGQLKMDIEFPGNGKEIDITIPISSAGGSA [r15_837_TrROS] | 2.37 ± 0.15 |
| SAGGSAGGSAGGPKVEVLEVFEFGDLRFVKVYDPETGKVTLLAVTRSDGSKVTFFNPEESAGGSAGGSAGGS [r10_655_TrMRF] | 2.23 ± 0.15 |
| SAGGKPKEIVIEVELEVVEVNGEKYLVLKAKIIDKETNEVYEVTAVFNLKTGKLVGIEVKKLTVEELKSAGG [r13_772_TrROS_Hall] | 4.66 ± 0.37 |
| SAETVVTPRRSTLPDGTRLEEDVVTLPDGTTVTPVRVVRRDPETGREVVEFWVRTTDPATGTTTTTPLPSAG [r14_324_JUSTAS] | 1.23 ± 0.051 |
| SHMVTVTIYKNGVKVKETEIPLEEVEKMPEEEIIEFAAEIAKKNPGVNYTFTITRPSGPSTVSIDGPEKLKS [r1_477_JUSTAS] | 1.28 ± 0.21 |
| SGPFQFFVKIEYKGKNGKTQERELPINMPPGDFDKFIEEILDDPNLEGADDVEIDVYMAGTGRPQEIEIPSA [r9_97_TrROS] | 1.07 ± 0.092 |
| SAGGSALVIKKVEPNKGYLVFESKEDDKPIVRVKLETLVAALEEDRIPPALRRLLAENPDQVFNPVSAGGSA [r15_359_TrMRF] | 1.9 ± 0.21 |
| SAKLTLEIEVNGKKYKAEITSVDEETGTVTIKVTFPDGSTQTLTLTFPPAPPPKVEKVYVVDKDGKLLKSAG [r14_466_TrROS_Hall] | 1.45 ± 0.12 |
| SAGGSAGGEKVEKKEVKVELKIVIVVSEELREMSEEELEELLKELAAKLPGVKEVKIEILPLPESAGGSAGG [r6_710_TrROS_Hall] | 1.16 ± 0.13 |
